How the values were obtained:
[1] = target: YFP(C)·Sec22p (S. cerevisiae) (UniProt P22214); experiment: split reporter (BiFC, NanoBiT); BiFC in living Δosh1-3 yeast cells (Y36), compared with wt (Y2)
His·Osh3p = target: T1, His·Osh3p (S. cerevisiae, UniProt P38713 1-996); experiment: pull-down; 2 μM GST·Sec9p(421–651) or GST on Glutathione-Agarose, equal molar His·Osh3p, 100 µl PBS + 0.1% Triton X-100, 1 h, room temperature; SDS-PAGE, Coomassie; details: both partners purified
T1 construct: Osh3p, PCR amplified and cloned into vector 1509; also called His6-tagged Osh3p; source: bacterial production, purified (Ni-NTA agarose)
T1 sequence (looked up): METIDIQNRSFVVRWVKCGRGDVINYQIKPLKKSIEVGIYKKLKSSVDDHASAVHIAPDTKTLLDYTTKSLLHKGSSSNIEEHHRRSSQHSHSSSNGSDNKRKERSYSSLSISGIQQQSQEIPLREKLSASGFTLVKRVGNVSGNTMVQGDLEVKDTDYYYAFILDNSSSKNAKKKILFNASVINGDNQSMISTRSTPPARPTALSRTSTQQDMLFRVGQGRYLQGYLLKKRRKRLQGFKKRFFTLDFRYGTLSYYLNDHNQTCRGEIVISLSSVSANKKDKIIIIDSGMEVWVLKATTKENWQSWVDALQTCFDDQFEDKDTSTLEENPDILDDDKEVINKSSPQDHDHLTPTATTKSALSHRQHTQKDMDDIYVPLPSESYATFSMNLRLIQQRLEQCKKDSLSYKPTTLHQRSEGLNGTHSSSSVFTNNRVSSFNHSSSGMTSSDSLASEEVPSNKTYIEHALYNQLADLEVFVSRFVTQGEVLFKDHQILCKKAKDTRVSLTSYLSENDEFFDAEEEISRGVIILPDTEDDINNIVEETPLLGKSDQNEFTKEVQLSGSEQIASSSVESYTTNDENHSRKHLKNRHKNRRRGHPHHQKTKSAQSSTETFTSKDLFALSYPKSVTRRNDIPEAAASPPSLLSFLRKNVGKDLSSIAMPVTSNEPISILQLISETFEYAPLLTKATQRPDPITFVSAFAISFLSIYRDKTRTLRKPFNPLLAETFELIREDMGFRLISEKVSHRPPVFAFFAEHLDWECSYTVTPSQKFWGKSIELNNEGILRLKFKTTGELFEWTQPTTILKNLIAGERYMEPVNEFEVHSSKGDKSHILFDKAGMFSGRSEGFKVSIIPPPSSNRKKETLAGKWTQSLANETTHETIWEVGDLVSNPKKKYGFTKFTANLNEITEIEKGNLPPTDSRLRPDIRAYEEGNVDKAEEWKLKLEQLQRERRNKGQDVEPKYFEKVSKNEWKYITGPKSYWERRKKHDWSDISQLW

[2] = target: T2, Venus(C)·VAPA (lentiviral) (human), Q9P0L0; experiment: split reporter (BiFC, NanoBiT); BiFC of Venus(N)·VAPA and Venus(C)·VAPA in wt mouse hippocampal neurons, lentiviral; scrambled or ORP2 shRNA; infected DIV 3 and fixed DIV 7, or infected DIV 7 and fixed DIV 14; details: remark: other sources report otherwise
T2 chain: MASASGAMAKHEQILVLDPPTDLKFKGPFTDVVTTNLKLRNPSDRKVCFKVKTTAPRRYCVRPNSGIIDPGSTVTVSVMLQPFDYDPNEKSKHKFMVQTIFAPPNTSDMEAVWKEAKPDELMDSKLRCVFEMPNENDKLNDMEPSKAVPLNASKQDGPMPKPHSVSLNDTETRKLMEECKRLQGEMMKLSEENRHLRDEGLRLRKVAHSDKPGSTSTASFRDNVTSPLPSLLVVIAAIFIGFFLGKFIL

YFP(C)·Sec22p (S. cerevisiae), sequence (P22214 whole entry): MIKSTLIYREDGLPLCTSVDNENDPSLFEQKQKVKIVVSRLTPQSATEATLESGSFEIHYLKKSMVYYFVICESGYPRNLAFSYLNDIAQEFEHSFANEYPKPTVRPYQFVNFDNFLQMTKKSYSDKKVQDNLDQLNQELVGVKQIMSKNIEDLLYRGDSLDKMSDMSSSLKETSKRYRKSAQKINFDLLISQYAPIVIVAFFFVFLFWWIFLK

Molecule “YFP(N)·Sso1p (from UniProt P32867 1-290) (natural protein)” has a reduction of the BiFC signal in the Δosh1-3 strain against wt [1] of 19%.

B1: GST·Sec9p(421–651) (domain or fragment, S. cerevisiae, UniProt P40357 421-651, looked up)
chain: EEDEAVDEIKQEIKFTKQSSVASTRNTLKMAQDAERAGMNTLGMLGHQSEQLNNVEGNLDLMKVQNKVADEKVAELKKLNRSILAVHVSNPFNSKRRRREREEQLKNRKIEEKLMREQTSQQLSQSTQRIEGAMNANNNISEVRERYQRKNVLEKAKRYQFENDEEDDEMELEIDRNLDQIQQVSNRLKKMALTTGKELDSQQKRLNNIEESTDDLDINLHMNTNRLAGIR
notes: cut out of 1530 and cloned into 977
B1: binds (His·Osh3p).

B2: Venus(N)·VAPA (lentiviral), Q9P0L0 1-249 (natural protein)
chain: T2 chain
Work on B2 yielded a fold reduction of VAPA-VAPA BiFC patches in ORP2 KD cells (transduced DIV 3, fixed DIV 7) [2] of 1.7 fold and a fold reduction of VAPA-VAPA BiFC patches in ORP2 KD cells (transduced DIV 7, fixed DIV 14) [2] of 2.3 fold.

Source: PMC7904734, “ORP/Osh mediate cross-talk between ER-plasma membrane contact site components and plasma membrane SNAREs” (Cellular and Molecular Life Sciences: CMLS, 2020)
